Substitutions are numbered along the chain they refer to.
B1: 469 (protein)
chain: LDNGLARTPTMGWLHWERFMCNLDCQEEPDSCISEKLFMEMAERMVSEGWKDAGYEYLCIDDCWMAPQRDSEGRLQADPQRFPHGIRQLANYVHSKGLKLGIYADVGNKTCAGFPGSFGYYDIDAQTFADWGVDLLKFDGCYCDSLENLADGYKHMSLALNRTGRSIVYSCEWPLYMWPFQKPNYTEIRQYCNHWRNFADIDDSWKSIKSILDWTSRNQERIVDVAGPGGWNDPDMLVIGNFGLSWDQQVTQMALWAIMAAPLFMSNDLRHISPQAKALLQDKDVIAINQDPLGKQGYQLRKGDNFEVWERPLSGDAWAVAIINRQEIGGPRSYTIPVASLGKGVACNPACFITQLLPVKRQLGFYNWTSRLKSHINPTGTVLLILENTMQMSLKDLL
modifications: Synthetic Polypeptide sequence of Variant No. 469 of mature Human GLA
B2: 473 (protein)
chain: B1 chain with I385Q, M392L
modifications: Synthetic Polypeptide sequence of Variant No. 473 of mature Human GLA
B3: 472 (protein)
chain: B1 chain with I385Q, M392K
modifications: Synthetic Polypeptide sequence of Variant No. 472 of mature Human GLA
B4: 474 (protein)
chain: B1 chain with I385Q, L386F
modifications: Synthetic Polypeptide sequence of Variant No. 474 of mature Human GLA
B5: 470 (protein)
chain: B1 chain with I385Q, M392R
modifications: Synthetic Polypeptide sequence of Variant No. 470 of mature Human GLA
B6: 369 (protein)
chain: B1 chain with R44S, I385Q
modifications: Synthetic Polypeptide sequence of Variant No. 369 of mature Human GLA
B7: 471 (protein)
chain: B1 chain with I385Q, T389W
modifications: Synthetic Polypeptide sequence of Variant No. 471 of mature Human GLA
B8: 475 (protein)
chain: LDNGLARTPTMGWLHWERFMCNLDCQEEPDSCISEKLFMEMAERMVSEGWKDAGYEYLCIDDCWMAPQRDSEGRLQADPQRFPHGIRQLANYVHSKGLKLGIYADVGNKTCAGFPGSFGYYDIDAQTFADWGVDLLKFDGCYCDSLENLADGYKHMSLALNRTGRSIVYSCEWPLYMWPFQKPNYTEIRQYCNHWRNFADIDDSWKSIKSILDWTSFNQERIVDVAGPGGWNDPDMLVIGNFGLSWNQQVTQMALWAIMAAPLFMSNDLRHISPQAKALLQDKDVIAINQDPLGKQGYQLRQGDNFEVWERPLSGLAWAVAMINRQEIGGPRSYTIAVASLGKGVACNPACFITQLLPVKRKLGFYEWTSRLRSHINPTGTVLLQLENDMQMSLKDLL
modifications: Synthetic Polypeptide sequence of Variant No. 475 of mature Human GLA
B9: 480 (protein)
chain: B8 chain with D389T, M390R
modifications: Synthetic Polypeptide sequence of Variant No. 480 of mature Human GLA
B10: 478 (protein)
chain: B8 chain with D389T, M392S
modifications: Synthetic Polypeptide sequence of Variant No. 478 of mature Human GLA
B11: 479 (protein)
chain: B8 chain with D389T, M392F
modifications: Synthetic Polypeptide sequence of Variant No. 479 of mature Human GLA
B12: 476 (protein)
chain: B8 chain with D389T, M390E
modifications: Synthetic Polypeptide sequence of Variant No. 476 of mature Human GLA
B13: 477 (protein)
chain: B8 chain with L384W, D389T
modifications: Synthetic Polypeptide sequence of Variant No. 477 of mature Human GLA

Test: HTP-analysis of supernatants pretreated with acid (MUGal hydrolysis)
Format: biochemical
Settings: activity of the variant/activity of Rd4BB (SEQ ID NO: 15); challenge at pH 3.7
Outline: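 Fluorescence of MUGal hydrolysis (Ex. 355 nm, Em. 448 nm) is read after sodium carbonate quench. The enzyme source is INVSc1 yeast culture supernatant, first exposed to pH 3.3-4.3 McIlvaine buffer at 37° C. for 1-3 h, then reacted at pH 4.8 for 30-180 minutes.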

| Molecule | Relative Activity of GLA Variants After Challenge at pH 3.7 |
| --- | --- |
| B1 | + (0.5 to 1.5 relative activity over Rd4BB (SEQ ID NO: 15)) |
| B2 | + (0.5 to 1.5 relative activity over Rd4BB (SEQ ID NO: 15)) |
| B3 | + (0.5 to 1.5 relative activity over Rd4BB (SEQ ID NO: 15)) |
| B4 | ++ (>1.5 to 2.5 relative activity over Rd4BB (SEQ ID NO: 15)) |
| B5 | ++ (>1.5 to 2.5 relative activity over Rd4BB (SEQ ID NO: 15)) |
| B6 | + (0.5 to 1.5 relative activity over Rd4BB (SEQ ID NO: 15)) |
| B7 | + (0.5 to 1.5 relative activity over Rd4BB (SEQ ID NO: 15)) |
| B8 | + (0.5 to 1.5 relative activity over Rd4BB (SEQ ID NO: 15)) |
| B9 | + (0.5 to 1.5 relative activity over Rd4BB (SEQ ID NO: 15)) |
| B10 | ++ (>1.5 to 2.5 relative activity over Rd4BB (SEQ ID NO: 15)) |
| B11 | + (0.5 to 1.5 relative activity over Rd4BB (SEQ ID NO: 15)) |
| B12 | + (0.5 to 1.5 relative activity over Rd4BB (SEQ ID NO: 15)) |
| B13 | − (<0.5 relative activity over Rd4BB (SEQ ID NO: 15)) |

Test: HTP-analysis of supernatants pretreated with base (MUGal hydrolysis)
Format: biochemical
Settings: activity of the variant/activity of Rd4BB (SEQ ID NO: 15); challenge at pH 9.65
Outline: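 GLA variants secreted from yeast INVSc1; culture supernatants pre-incubated with McIlvaine buffer pH 7.0–8.2 or 200 mM bicarbonate pH 9.1–9.7 at 37° C. for 1–18 h. Residual activity: MUGal (4 mM stock) hydrolysis at pH 4.3–4.8, 37° C., 30–180 min, carbonate quench; fluorescence Ex 355/Em 448 nm.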

| Molecule | Relative Activity of GLA Variants After Challenge at pH 9.65 |
| --- | --- |
| B1 | + (0.5 to 1.5 relative activity over Rd4BB (SEQ ID NO: 15)) |
| B2 | + (0.5 to 1.5 relative activity over Rd4BB (SEQ ID NO: 15)) |
| B3 | + (0.5 to 1.5 relative activity over Rd4BB (SEQ ID NO: 15)) |
| B4 | + (0.5 to 1.5 relative activity over Rd4BB (SEQ ID NO: 15)) |
| B5 | + (0.5 to 1.5 relative activity over Rd4BB (SEQ ID NO: 15)) |
| B6 | − (<0.5 relative activity over Rd4BB (SEQ ID NO: 15)) |
| B7 | + (0.5 to 1.5 relative activity over Rd4BB (SEQ ID NO: 15)) |
| B8 | + (0.5 to 1.5 relative activity over Rd4BB (SEQ ID NO: 15)) |
| B9 | + (0.5 to 1.5 relative activity over Rd4BB (SEQ ID NO: 15)) |
| B10 | + (0.5 to 1.5 relative activity over Rd4BB (SEQ ID NO: 15)) |
| B11 | + (0.5 to 1.5 relative activity over Rd4BB (SEQ ID NO: 15)) |
| B12 | + (0.5 to 1.5 relative activity over Rd4BB (SEQ ID NO: 15)) |
| B13 | + (0.5 to 1.5 relative activity over Rd4BB (SEQ ID NO: 15)) |

Test: HTP-analysis of yeast culture supernatants, no challenge (MUGal hydrolysis)
Format: biochemical
Settings: activity of the variant/activity of Rd4BB (SEQ ID NO: 15)
Outline: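 GLA variants were expressed in INVSc1 yeast grown in SD-Ura broth with glucose at 30° C., and culture supernatants were collected after 66-84 h. Supernatant was mixed with McIlvaine buffer pH 4.8 and MUGal (2 mM stock) in 50 mM citrate, 200 mM KCl, pH 4.6, incubated at 37° C. for 30-180 minutes, then quenched with sodium carbonate.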

| Molecule | Relative Activity of GLA Variants After No Challenge (NC) |
| --- | --- |
| B1 | + (0.5 to 1.5 relative activity over Rd4BB (SEQ ID NO: 15)) |
| B2 | + (0.5 to 1.5 relative activity over Rd4BB (SEQ ID NO: 15)) |
| B3 | + (0.5 to 1.5 relative activity over Rd4BB (SEQ ID NO: 15)) |
| B4 | + (0.5 to 1.5 relative activity over Rd4BB (SEQ ID NO: 15)) |
| B5 | + (0.5 to 1.5 relative activity over Rd4BB (SEQ ID NO: 15)) |
| B6 | + (0.5 to 1.5 relative activity over Rd4BB (SEQ ID NO: 15)) |
| B7 | + (0.5 to 1.5 relative activity over Rd4BB (SEQ ID NO: 15)) |
| B8 | + (0.5 to 1.5 relative activity over Rd4BB (SEQ ID NO: 15)) |
| B9 | + (0.5 to 1.5 relative activity over Rd4BB (SEQ ID NO: 15)) |
| B10 | + (0.5 to 1.5 relative activity over Rd4BB (SEQ ID NO: 15)) |
| B11 | + (0.5 to 1.5 relative activity over Rd4BB (SEQ ID NO: 15)) |
| B12 | + (0.5 to 1.5 relative activity over Rd4BB (SEQ ID NO: 15)) |
| B13 | + (0.5 to 1.5 relative activity over Rd4BB (SEQ ID NO: 15)) |

Reference: US11278600B2, “Human alpha-galactosidase variants” (Codexis, Inc., priority 2014, dated 2022)
